In patent publication US20260028391A1 (HUMABS BIOMED, published 2026):
Changes are numbered by the printed parent chain.

B1: MPK102 (antibody, V domains shown)
VH: EVQLVESGGGLVKPRGSLRLSCAASGFTFSGYFMIWIRQAPGKGLEWVSYISGSSTYTNYADSVKGRFTISRDNGRNTLYLQMNSLRADDTAVYYCATEQTPSPGPFDLWGQGTLVTVSS
VL: QSVLTQPPSVSGAPGQRVTISCTGTSSNIGAGYDVHWYQQFPGTSPKLLIFRNTNRPSGVSDRFSGSKSGSSASLAIAGLQAEDESDYYCQSYDRGLDGWVFGGGTRLTVL
notes: VH and VL only
B2: MPK144 (antibody, V domains shown)
VH: EVQLVESGGGLVRPGGSLRLSCAASGFTFTGYYMMWIRQAPGKGLEWISDISSSSSYTNYADSVKGRFAISRDNAQNTLYLQMNSLRAEDTAVYYCATEQVPSPGPFDLWGQGTLVTVSS
VL: B1 VL with T25S, I29F, F51Y, S61P, S71T, A78T, S86A, G96S, D98T, R107K
notes: VH and VL only
B3: MPK86 (antibody, V domains shown)
VH: EVQLVESGGGLVKPGGSLRLSCAASGFSISGYYMIWIRQAPGRGLEWISDISASSTYTDYADSVKGRFTISRDNGQNTVYLQMNNLRADDTALYYCATEQTPSPGPFDLWGQGTLVTVSS
VL: QSVVTQPPSVSGAPGQRVIISCSGRSSNIGAGYDVHWYQHFPGTSPKLLIYRNTNRPSGVPDRFSASTSATSASLAITGLQADDEADYYCQSYDRNLGGWVFGGGTKLTVL
notes: VH and VL only
B4: MPK126 (antibody, V domains shown)
VH: B3 VH with L18M, F27V, S28T, I29L, R43K, I70V, G75S, N85S, D89E, L93V
VL: QSVLTQPPSVSGAPGQRVTISCTGSSSNVGAGYDVHWYQQFPGTSPKLLIYRNTNRPSGVPDRFSGFKSGTSASLAITGLEAEDEADYYCQSYDRSLSGWVFGAGTKLTVL
notes: VH and VL only
B5: MPK9 (antibody, V domains shown)
VH: EVQLVESGGGLVKPGGSLRLSCAASGFTISGYGMSWFRQAPGKGLEWVSSISASSSYIYYADSTKGRFTISRDNGKQSLYLQMNSLRAEDTAVYYCATSPIEPPYFDLWGRGTLVTVSS
VL: QSVLTQPPSVSGAPGQRVTISCTGSSSNIGAGYDVHWYQQLPGKAPKLLIYGNNNRPSGVPDRFSGSNSGASASLAITGLQAEDEADYFCQSYDRRLSGPVFGRGTKLTVL
notes: VH and VL only
B6: MPK73 (antibody, V domains shown)
VH: EVQLVESGGGLVKPGGSLTLSCAASGFSISGYGMNWVRQAPGRGLEWVASISASSTYIYYADSMKGRFTISRDNGKTSLYLQMKSLRAEDTAVYYCARAPIEPPYFDLWGRGTLVTVSS
VL: B5 VL with S26N, Q40H, L48V, T78S, V101I, R104G
notes: VH and VL only
B7: MPK127 (antibody, V domains shown)
VH: QVQLVISGGGLVKPGGSLRLSCAASGFRIDSFSLNWVRQAPGKGLEWLASVSASSSYIDYRDSVAGRFTISRDNAQNSLYLQMDTLRAEDTAVYYCARTNGYETGSFDVWGQGTLVTVAS
VL: B5 VL with Y51N, G52A, A71T, F89Y, R95K, R96T, P100Y, R104L, K107T, L108V
notes: VH and VL only
B8: MPK142-v1 (antibody, V domains shown)
VH: EVQLVESGGGLVEPGGSLRLSCAASGFTISGYGMSWVRQAPGKGLEWVSSISASSSYIYYGDAMKGRITISRDNGWNSMYLQMNSLRTEDTAVYYCATAPIEPPYFDLWGRGTLVTVSS
VL: B5 VL with L41F, L48V, S65A, G66A, D87A, R104G
notes: VH and VL only
B9: MPK108 (antibody, V domains shown)
VH: EVQLVESGGGLVRPGQSLRLSCTASGFSISGYFMIWVRQAPGKGLEWISYVSASSTYTNYADSVRGRFTTSRDNGQNSLFLQMDSLTAEDTGVYFCAREQTPSPGPFDSWGQGVLVTVSS
VL: QSVLTQPPSLSGAPGQRITISCTGTSSNIGAGYDVHWYQYLPGTAPKLVIYRNTNRPSGVSGRFSGSKSGTSASLAITGLQTEDEADYYCQSYDKKLDGWVFGGGTKLTVL
notes: VH and VL only
B10: MPK141 (antibody, V domains shown)
VH: EVQLVESGGGLVKPGGSLRLSCAASGFTISGYYMTWIRQAPGKGLEWISYISGSSSYTNYADSVKGRFTISRDNGRNSVYLQMNSLRADDTGVYYCAREETPSPGPFDSWGQGILVTVSS
VL: QSVLTQPPSVSGAPGQRIIISCIGSSSNIGTGYDVHWYQQLPGRAPKLLISRNTNRPSGIPDRFSGSKSGTSASLAITGLQADDEADYYCQSYDRGLDGWVFGGGTKLTVL
notes: VH and VL only
B11: MPK10 (antibody, V domains shown)
VH: EVQLVQSGGGLVKPGGSLRLSCAASGFRFSGYFMIWIRQAPGKGLEWISFISGGSSYTNYADSVKGRFTISRDNVQNTLFLDMNSLRAEDTGVYFCATEQVPTPGPFDLWGQGSLVTVSS
VL: QSVLTQPPSVSGVPGQRVIISCTGSSSNIGAGYDVHWYQQFPGRSPTLLIYRNTNRPSGVPDRFSGFQSGSSASLAITGLQAEDEADYYCQSFDRTLDGWAFGGGTKVTVL
notes: VH and VL only
B12: MPK133 (antibody, V domains shown)
VH: QVQLVQSGGGLVKPGGSLRLSCAASEFSFSGYFMIWIRQAPGKGLEWISYISGSSTYTNYADSVKGRFTISRDNAQNTLYLEMNSLRAEDTGVYYCATEQVPSPGPFDLWGQGTLVTVSS
VL: B11 VL with V13A, I19T, F67S, F93Y, D98S
notes: VH and VL only
B13: MPK136 (antibody, V domains shown)
VH: EVQLVESGGGLVKPGGSLRLSCEASGFSLSGYYMIWIRQAPGKGLEWISSISGSGNYINYADSVKGRFTVSRDNGHNTLYLQMNSLRVEDTAVYYCATEQTPSPGPFDHWGQGTLVTVSS
VL: QVQLVQPPSVSGAPGQRVSISCTGTSSNIGTGYDVHWYQQFPGTSPKLLIYRNTNRPSGVPDRFSGSKSGSSASLAIAGLQAEDEADYYCQSYDRSVSGWVFGGGTKLTVL
notes: VH and VL only
B14: MPK18 (antibody, V domains shown)
VH: EVQLVESGGGLVKPGGSLRLSCAASGFTISGYYMIWIRQAPGKGLEWISYISGSSSYTNFGASVKGRFTISRDNGQNTVHLQMTNLRADDTALYYCATEQTPSPGPFDLWGQGTLVTVSS
VL: QSVVTQPPSVSGAPGQRVTISCSGTSSNIGAGYDVHWYQQFPGTSPKLLISRNFNRPSGVPARFSGSKSGSSASLAIAGLQAEDEADYYCQSYDRSLGGWVFGGGTKVTVL
notes: VH and VL only
B15: MPK67 (antibody, V domains shown)
VH: B14 VH with F60Y
VL: B14 VL with V4L, A82P
notes: VH and VL only
B16: MPK99 (antibody, V domains shown)
VH: B3 VH with S28T, A40S, R43K, T56S, N85S, D89E, L93V, T101V
VL: B14 VL with Q16L, A31R, T44Q, S51Y, F54T, A62D, S67F, K107R, V108L, T109I
notes: VH and VL only
B17: MPK132-v1 (antibody, V domains shown)
VH: EVQLVESGGGLVKPGGSLRLSCEASGISLSGYYMIWIRQAPGKGLEWISSISSSSNYIDYADSVKGRFTISRHNGQNTLYLQMNSLRVEDTAVYFCATEQTPSPGPFELWGQGILVTVSS
VL: B13 VL with V2S, Q3V, L4V, V5T, S19T, S21F
notes: VH and VL only
B18: MPK30-v1 (antibody, V domains shown)
VH: EVQLVESGGGLVKPGGSLRLSCAASGFTISGYYMIWIRQAPGKGLEWISFISASSSYINYADSVRGRFTISRDNGRSTVYLQMNSLRPEDTAVYYCATEQVPSPGPFDLWGQGTLVTVSS
VL: B1 VL with T44R, F51Y, S61P, S86A, G96S, R107T
notes: VH and VL only
B19: MPK129 (antibody, V domains shown)
VH: B13 VH with N59D, V70I
VL: B13 VL with V2T, Q3V, L4V, V5T, S19T
notes: VH and VL only
B20: MPK36-v3 (antibody, V domains shown)
VH: EVQLVESGGGLVKPGGSLRLSCAASFTISGYYMIWIRQAPGKGLEWISYISGSSTYTNYADSVKGRFTISRDNGQNTLYLHMTSLRADDTALYYCATEQTPSPGPFDLWGQGTLVTVSS
VL: B14 VL with S2T, S51Y, A62D, R95K, G98D
notes: VH and VL only
B21: MPK130 (antibody, V domains shown)
VH: EVQLVESGGGLVKPGGSLTLSCEASGFSISGYYMIWVRQAPGKGLEWVSSISASDTYIDYAVSVQGRFTISRHNTKNSLYLQMSSLRVEDTGVYYCTREKVPSPGPFDCWGQGTLVTVSS
VL: QSVLTQPPSVSGAPGQRITISCTGTSSNIGAGYDVHWYQHLPGAAPRLLIYVNTNRPSGVPDRFSGARSGTSASLAITGLQAEDEADYYCQSYDRSLGGWAFGEGTKVTVL
notes: VH and VL only
B22: MPK92 (antibody, V domains shown)
VH: B17 VH with K65R
VL: QSVLTQPPSVSGAPGQRVTIFCTGTTSNIGTGYDVHWYQQFPGTSPKLLIYRNTNRPSGVPDRFSGSRSGSSASLAIAGLQAEDEADYYCQSFDRSVNGWIFGGGTKVTVL
notes: VH and VL only
B23: MPK142-v2 (antibody, V domains shown)
VH: B8 VH
VL: DIQLTQTPTSLSASVGDRVTFTCRASQNIGFYLNWYQQKPGKAPRLLIYGASNLQSGVPSRFSGSGAGTDFSLTISSLQPEDFATYYCQQSFNTPRTFGQGTKVEIN
notes: VH and VL only

Molecular target: RSV fusion glycoprotein (RSV-F) (respiratory syncytial virus)
Assay: SPR; F protein loaded on streptavidin sensors, mAb in solution
Protocol: Binding affinity of mAbs for RSV-F protein, MPV-F D280 protein, and MPV-F N280 F variant protein was assessed using surface plasmon resonance (SPR).

Binder | Kd [nM]
B1 | 0.096
B2 | 0.001
B3 | 0.001
B4 | 0.001
B5 | 0.04
B6 | 0.012
B7 | 1.7
B8 | 100
B9 | 0.58
B10 | 0.13
B11 | 0.012
B12 | 0.001
B13 | 0.001
B14 | 0.001
B15 | 0.0059
B16 | 0.15
B17 | 0.47
B18 | 0.01
B19 | 0.083
B20 | 0.0056
B21 | 0.016
B22 | 0.098
B23 | 16
